B1: LRP6-GFP [not stated] / FLAG-AP2μ [not stated] (parent complex)
chain 1: APLLLYANRRDLRLVDATNGKENATIVVGGLEDAAAVDFVFSHGLIYWSDVSEEAIKRTEFNKTESVQNVVVSGLLSPDGLACDWLGEKLYWTDSETNRIEVSNLDGSLRKVLFWQELDQPRAIALDPSSGFMYWTDWGEVPKIERAGMDGSSRFIIINSEIYWPNGLTLDYEEQKLYWADAKLNFIHKSNLDGTNRQAVVKGSLPHPFALTLFEDILYWTDWSTHSILACNKYTGEGLREIHSDIFSPMDIHAFSQQRQPNATNPCGIDNGGCSHLCLMSPVKPFYQCACPTGVKLLENGKTCKDGATELLLLARRTDLRRISLDTPDFTDIVLQLEDIRHAIAIDYDPVEGYIYWTDDEVRAIRRSFIDGSGSQFVVTAQIAHPDGIAVDWVARNLYWTDTGTDRIEVTRLNGTMRKILISEDLEEPRAIVLDPMVGYMYWTDWGEIPKIERAALDGSDRVVLVNTSLGWPNGLALDYDEGKIYWGDAKTDKIEVMNTDGTGRRVLVEDKIPHIFGFTLLGDYVYWTDWQRRSIERVHKRSAEREVIIDQLPDLMGLKATNVHRVIGSNPCAEENGGCSHLCLYRPQGLRCACPIGFELISDMKTCIVPEAFLLFSRRADIRRISLETNNNNVAIPLTGVKEASALDFDVTDNRIYWTDISLKTISRAFMNGSALEHVVEFGLDYPEGMAVDWLGKNLYWADTGTNRIEVSKLDGQHRQVLVWKDLDSPRALALDPAEGFMYWTEWGGKPKIDRAAMDGSERTTLVPNVGRANGLTIDYAKRRLYWTDLDTNLIESSNMLGLNREVIADDLPHPFGLTQYQDYIYWTDWSRRSIERANKTSGQNRTIIQGHLDYVMDILVFHSSRQSGWNECASSNGHCSHLCLAVPVGGFVCGCPAHYSLNADNRTCSAPTTFLLFSQKSAINRMVIDEQQSPDIILPIHSLRNVRAIDYDPLDKQLYWIDSRQNMIRKAQEDGSQGFTVVVSSVPSQNLEIQPYDLSIDIYSRYIYWTCEATNVINVTRLDGRSVGVVLKGEQDRPRAVVVNPEKGYMYFTNLQERSPKIERAALDGTEREVLFFSGLSKPIALALDSRLGKLFWADSDLRRIESSDLSGANRIVLEDSNILQPVGLTVFENWLYWIDKQQQMIEKIDMTGREGRTKVQARIAQLSDIHAVKELNLQEYRQHPCAQDNGGCSHICLVKGDGTTRCSCPMHLVLLQDELSCGEPPTCSPQQFTCFTGEIDCIPVAWRCDGFTECEDHSDELNCPVCSESQFQCASGQCIDGALRCNGDANCQDKSDEKNCEVLCLIDQFRCANGQCIGKHKKCDHNVDCSDKSDELDCYPTEEPAPQATNTVGSVIGVIVTIFVSGTVYFICQRMLCPRMKGDGETMTNDYVVHGPASVPLGYVPHPSSLSGSLPGMSRGKSMISSLSIMGGSSGPPYDRAHVTGASSSSSSSTKGTYFPAILNPPPSPATERSHYTMEFGYSSNSPSTHRSYSYRPYSYRHFAPPTTPCSTDVCDSDYAPSRRMTSVATAKGYTSDLNYDSEPVPPPPTPRSQYLSAEENYESCPPSPYTERSYSHHLYPPPPSPCTDSS
chain 2: MIGGLFIYNHKGEVLISRVYRDDIGRNAVDAFRVNVIHARQQVRSPVTNIARTSFFHVKRSNIWLAAVTKQNVNAAMVFEFLYKMCDVMAAYFGKISEENIKNNFVLIYELLDEILDFGYPQNSETGALKTFITQQGIKSQHQTKEEQSQITSQVTGQIGWRREGIKYRRNELFLDVLESVNLLMSPQGQVLSAHVSGRVVMKSYLSGMPECKFGMNDKIVIEKQGKGTADETSKSGKQSIAIDDCTFHQCVRLSKFDSERSISFIPPDGEFELMRYRTTKDIILPFRVIPLVREVGRTKLEVKVVIKSNFKPSLLAQKIEVRIPTPLNTSGVQVICMKGKAKYKASENAIVWKIKRMAGMKESQISAEIELLPTNDKKKWARPPISMNFEVPFAPSGLKVRYLKVFEPKLNYSDHDVIKWVRYIGRSGIYETRC

Variants of: B1
Assay: coIP (FLAG IP, α-GFP blot densitometry)
For chain 1 Y1498A, chain 1 Y1501A, the ratio to parent was 0.58. Work on chain 1 Y1503A, chain 1 F1506A yielded a ratio to parent of 0.31. Work on chain 1 Y1503A yielded a ratio to parent of 0.21. chain 1 Y1498A, chain 1 Y1501A, chain 1 Y1503A, chain 1 F1506A gave a ratio to parent of 0.05. Work on chain 1 S1560A yielded a ratio to parent of 0.69.

Source: paper PMC12095580, “Wnt signalosome assembly is governed by conformational flexibility of Axin and by the AP2 clathrin adaptor” (Nature Communications, 2025)
